What was measured:
[1] = tested on: TCF dependent transcription; assay: TOP-Glow/FOP-Glow TCF reporter assay in PAI tumor cells; type: cell-based, human; conditions: PAI ovarian tumor cells, 48 hours
Description: Wnt signaling activates TCF dependent transcription, which can be monitored by reporters containing TCF responsive elements (Morin et al., (1997) Science 275:1787-1790). TCF responsive elements operably linked to a reporter (TOP-Glow, wild type, or FOP-Glow, mutant) were analyzed for transcriptional activity in PAI tumor cells in the presence or absence of DKK1. Ovarian tumor PAI cells plated at 3×10^5 per well in 6-well plates were co-transfected with 1 μg of either the TOP-glow or FOP-glow plasmids (Upstate Biotechnology, Waltham, Mass.) and 0.001 μg of the Renilla control plasmid (pRL-CMV) utilizing Fugene (Roche) according to the manufacturer's instructions. After 48 hours cells were lysed and analyzed utilizing the Dual Luciferase Reporter Assay system (Promega, Madison, Wis.). […] These findings further established that TCF dependent transcription was constitutively activated in these tumor cells by an autocrine Wnt mechanism.

uncomplexed β-catenin [2] = assay: GST-E-cadherin binding assay / immunoblot, NIH3T3 cells expressing β-catenin under Tet promoter; type: cell-based, mouse; conditions: β-catenin under tet regulatable promoter, purified DKK1 (10 nM)
Description: β-catenin levels were assessed using the GST-E-cadherin binding assay, which has been previously described (Bafico et al., (1998) Oncogene 16:2819-2825). Briefly, bacterially expressed GST-E-cadherin was purified with glutathione-Sepharose beads and incubated with 1 mg of each cell lysate. The GST-E-cadherin/[…]-catenin complex bound to the beads was recovered by centrifugation and analyzed by SDS-PAGE followed by immunoblotting. The uncomplexed β-catenin was detected using a monoclonal antibody to β-catenin (Transduction Laboratories). Unphosphorylated β-catenin was detected with a monoclonal antibody specific for β-catenin dephosphorylated at residues 27-37 (Alexis, Läufelfingen, Switzerland). FRP1-HA and DKK1-HA were detected with an anti-HA monoclonal antibody (Hybridoma Center, Mount Sinai School of Medicine, New York). […]

uncomplexed β-catenin [3] = assay: Uncomplexed β-catenin in MDAMB231 breast tumor cells; type: cell-based, human; conditions: FRP1-HA retrovirus
Description: (§1) β-catenin levels were assessed using the GST-E-cadherin binding assay, which has been previously described (Bafico et al., (1998) Oncogene 16:2819-2825). Briefly, bacterially expressed GST-E-cadherin was purified with glutathione-Sepharose beads and incubated with 1 mg of each cell lysate. The GST-E-cadherin/[…]-catenin complex bound to the beads was recovered by centrifugation and analyzed by SDS-PAGE followed by immunoblotting. The uncomplexed β-catenin was detected using a monoclonal antibody to β-catenin (Transduction Laboratories). Unphosphorylated β-catenin was detected with a monoclonal antibody specific for β-catenin dephosphorylated at residues 27-37 (Alexis, Läufelfingen, Switzerland). FRP1-HA and DKK1-HA were detected with an anti-HA monoclonal antibody (Hybridoma Center, Mount Sinai School of Medicine, New York).
(§2) Breast (MDAMB231, ATCC No. HTB-26) and ovarian A1847 tumor cell lines were infected with vector alone or FRP 1-HA (described in Example 1) retroviruses and marker selected. […] Breast (MDAMB231) and ovarian A1847 tumor cell lines were analyzed for uncomplexed β-catenin and FRP 1-HA by immunoblot analysis with either an anti-β-catenin antibody (Transduction Laboratories) or an anti-HA antibody (Hybridoma Center, Mount Sinai School of Medicine, New York). […]

uncomplexed β-catenin [4] = assay: Uncomplexed β-catenin in A1847 ovarian tumor cells; type: cell-based, human; conditions: FRP1-HA retrovirus
Description: as §1, §2

ID2 = assay: Northern blot of Id2 in HCT116 clones; type: cell-based, human; conditions: HCT116 wild type β-catenin allele clone
Source text: We next assessed the effects of FRP1 inhibition on the expression of Id2, Cyclin D1 and Myc, known targets of Wnt/β-catenin in colorectal cancer (Rockman et al. (2001) J. Biol. Chem. 276:45113-45119; Tetsu and McCormick (1999) Nature 398:422-426; He et al. (1998) Science 281:1509-1512). RNAs were extracted from HCT116 parental cells, and either wild type or mutant β-catenin allele containing clones transfected with either vector control or FRP1-HA using Triazol (Invitrogen). The RNAs were separated by (1%) agarose gel electrophoresis and transferred to a nylon membrane (Hybond®, Pharmacia). Probes were labeled by the Random Prime Labelling System method (Amersham Biosciences), and hybridization was performed overnight utilizing the Hybrisol I solution (Serologicals Corporation) according to the manufacturer's instructions. Normalization was performed utilizing a commercial human GADPH control probe (BD Biosciences Clontech).

HCT116 cell lines = assay: Tumorigenicity of HCT116 cell lines injected subcutaneously in nude mice; type: in vivo
Description: To assess the effects of Wnt autocrine inhibition in vivo, tumorigenicity experiments were performed utilizing parental or β-catenin wild type allele containing HCT116 cell lines, in which stable marker selected mass cultures expressing FRP1 were obtained. Parental and wild type β-catenin allele containing HCT116 cells were transfected with either vector control or FRP1. Marker selected mass cultures of each were subcutaneously injected in 6 week old nude mice at 2.5×10^6 cells per site. Tumor growth was monitored at weekly intervals as previously described (Pierce et al. (1991) Oncogene 6:1189-1194). Values in FIG. 7F represent the mean (± standard deviation) of 4 inoculation cites per cell line. […] All of these findings establish that autocrine Wnt signaling can be present in human colon carcinoma cells that harbor downstream lesions within the canonical pathway.

Molecule	level of endogenous TCF dependent signaling [1]	uncomplexed β-catenin induced by exogenous β-catenin (uncomplexed β-catenin [2])	constitutively up-regulated β-catenin (uncomplexed β-catenin [3])	constitutively up-regulated β-catenin (uncomplexed β-catenin [4])	Id2 transcript level (ID2)	tumor growth (HCT116 cell lines; parental HCT116 cells expressing FRP1, subcutaneous in nude mice)	tumor forming ability (HCT116 cell lines; β-catenin wild type allele containing HCT116 cells expressing FRP1, subcutaneous in nude mice)
DKK1: Dickkopf-1, secreted Wnt antagonist protein that binds Wnt co-receptor LRP6; used purified, in conditioned media or retrovirally expressed with HA tag (protein, UniProt O94907 32-266, looked up, HA tag in some uses) Dickkopf-related protein 1: TLNSVLNSNAIKNLPPPLGGAAGHPGSAVSAAPGILYPGGNKYQTIDNYQPYPCAEDEECGTDEYCASPTRGGDAGVQICLACRKRRKRCMRHAMCCPGNYCKNGICVSSDQNHFRGEIEETITESFGNDHSTLDGYSRRTTLSSKMYHTKGQEGSVCLRSSDCASGLCCARHFWSKICKPVLKEGQVCTKHRRKGSHGLEIFQRCYCGEGLSCRIQKDHHQASNSSRLHTCQRH	striking reduction	no effect					
FRP1: human secreted Frizzled Related Protein 1, Wnt antagonist; expressed from pBabe-derived retrovirus with carboxy-terminal HA tag (protein, UniProt Q8N474 32-314, looked up, C-terminal HA tag, human secreted Frizzled Related Protein 1, Wnt antagonist; expressed from pBabe-derived retrovirus with carboxy-terminal HA tag) Secreted frizzled-related …: SEYDYVSFQSDIGPYQSGRFYTKPPQCVDIPADLRLCHNVGYKKMVLPNLLEHETMAEVKQQASSWVPLLNKNCHAGTQVFLCSLFAPVCLDRPIYPCRWLCEAVRDSCEPVMQFFGFYWPEMLKCDKFPEGDVCIAMTPPNATEASKPQGTTVCPPCDNELKSEAIIEHLCASEFALRMKIKEVKKENGDKKIVPKKKKPLKLGPIKKKDLKKLVLYLKNGADCPCHQLDNLSHHFLIMGRKVKSQYLLTAIHKWDKKNKEFKNFMKKMKNHECPTFQSVFK			inhibition of constitutively up-regulated β-catenin	inhibition of constitutively up-regulated β-catenin	reduction	no effect	striking reduction

Reference: patent US8809287B2, “Compositions and methods for altering Wnt autocrine signaling” (Icahn School of Medicine at Mount Sinai, priority 2004, dated 2014)
